Where “and” joins values, the source holds several entries; their conditions need not be identical. Equal values may be shown once.
Target: 全序列COVID-19刺突蛋白 (on COVID-19 pseudovirus) (COVID-19 (SARS-CoV-2), UniProt P0DTC2 14-1273)
Test: cell-based or functional assay

B1: 人源化单克隆抗体CB6 (antibody, V domains shown)
VH: EVQLVESGGGLVQPGGSLRLSCAASGFTVSSNYMSWVRQAPGKGLEWVSVIYSGGSTFYADSVKGRFTISRDNSMNTLFLQMNSLRAEDTAVYYCARVLPMYGDYLDYWGQGTLVTVSS
VL: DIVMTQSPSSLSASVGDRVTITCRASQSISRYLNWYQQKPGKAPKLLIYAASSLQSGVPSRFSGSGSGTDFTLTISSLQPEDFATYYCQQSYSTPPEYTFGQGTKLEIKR
B1 was tested, and the “IC50 of inhibition of COVID-19 pseudovirus infection of Huh-7 cells (luciferase)” value was 0.183 nM and 0.0275 μg/ml.
